From patent publication US20190241668A1 (ARGENX, published 2019)

T1: TIM-3 (T cell immunoglobulin and mucin-domain containing-3) (human, UniProt Q8TDQ0 22-200, limits assumed)
T1 construct: also called TIMD-3; HAVCR2
T1 sequence (looked up): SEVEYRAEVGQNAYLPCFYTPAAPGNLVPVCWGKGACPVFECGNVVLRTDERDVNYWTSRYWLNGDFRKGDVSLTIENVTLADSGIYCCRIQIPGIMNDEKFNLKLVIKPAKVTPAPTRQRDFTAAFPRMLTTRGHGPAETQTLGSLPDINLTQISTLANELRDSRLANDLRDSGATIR


Key:
[1] = biological target: T1, TIM-3 (T cell immunoglobulin and …); assay: ELISA, Fab on TIM-3
[2] = biological target: T1, TIM-3 (T cell immunoglobulin and …); assay: Biacore, Fab on TIM-3

Row | EC50 [1] [µg/mL] | koff [2] [s⁻¹] | Binder
1 | 0.00851 | 4.87e-05 | Fab clone 2B9 (Fab, V domains shown, Llama-derived Fab from an immune library; the constant domains of the Fab are not) VH: EVQLQESGPGLVKPSQTLSLTCTVSGASVTTRYNYWSWIRQPPGKGLEWMGAITYSGSTYYSPSLKSRTSISRDTSKNQFTLQLSSVTPEDTAVYYCATEGSSSTGVSRYSFGSWGQGTQVTVSS VL: ATMLTQSPGSLSVVPGESASISCKASQSLTHTDGTTALYWLQQKPGQRPQLLIYEVSVRASGVPDRFTGSGSGSDFTLKINGVKAEDAGVYYCAQVAYYPTFGQGTKVELK
2 | 0.014 | 1.85e-05 | Fab clone 2B10 (Fab, V domains shown, Llama-derived Fab from an immune library; the constant domains of the Fab are not; also called 2610; 21310) VH: QVQLQESGPGLVKPSQTLSLTCTVSGGSITTNRYLWTWIRQTPGKGLEWVGAIAYSGRTYYSPSLKSRTSISRDTSKNQFTLQLSSVTPEDTGVYYCAHFTGWGGYYWGQGTQVTVSS VL: QSALTQPPSVSGTLGKTVTISCAGTSSDIGGYNSVSWYQQLPGTAPKLLIYEVNKRASGIPDRFSGSKSGNTASLSISGLQSEDEADYYCASYRSANNVVFGGGTKLTVL
3 | 0.00821 | 1.04e-05 | Fab clone 2C6 (Fab, V domains shown, Llama-derived Fab from an immune library; the constant domains of the Fab are not) VH: QVQLVESGGGLVQPGGSLRLSCAASGFAFSSYDMSWVRQAPGKGPEWVSTINSGGGSTSYADSVKGRFTISRDNAKNTVYLQMNSLKPEDTAVYYCAARSLYYTRVPMYDYWGQGTQVTVSK VL: QAVVTQEPSLSVSPGGTVTLTCGLSSGSVTTNNYPGWFQQTPGQAPRTLIYSTSSRHSGVPSRFSGSISGNKAALTITGAQPEDEADYYCALDIGSYTAVFGGGTHLTVL
4 | 0.00852 | 3.64e-05 | Fab clone 2B6 (Fab, V domains shown, Llama-derived Fab from an immune library; the constant domains of the Fab are not) VH: QVQLVESGGGLVQPGGSLRLSCAASGFAFSSYDMSWVRQAPGKGLEWVSTINSGGGSTNYADSMKGRFTISRDNAKNTVYLQMNSLKPEDTAVYYCAARSPYYTRVPLYDYWGQGTQVTVSS VL: QAVVTQEPSLSVSLGGTVTLTCGLRSGSVTTSNYPGWFKQTPGQAPRTLIFGASSRHSGVPSRYSGSISGNKAALTITGAEPEDEADYYCALNKGTYTDVFGGGTKLTVL
5 | 0.121 | – | Fab clone 2E2 (Fab, V domains shown, Llama-derived Fab from an immune library; the constant domains of the Fab are not) VH: QLQLVESGGGLVQPGGSLRLSCAASGFTFGSYDMSWVRQAPGKGPEWVSRITSGGGSTYADSVKGRFTISRDNAKNTLSLQMNSLKSEDTAVYYCAAGQYSDGYYPYDYWGQGTQVTVSS VL: DIVMTQSPSSLSASLGDRVTITCQASQSISSYLAWYQQKPGQGPKLLIYGASRLEPGVPSRFSGSGSGTSFTLTISGVEAEDLATYYCLQDYSWPYSFGSGTRLEIK
6 | 0.0104 | 0.000151 | Fab clone 2A6 (Fab, V domains shown, Llama-derived Fab from an immune library; the constant domains of the Fab are not) VH: QVQLVESGGGLVQPGGSLRLSCAASGFTFSNYWMYWVRQAPGKGLEWVSTINTNGAITLYADNVKDRFTVSRDNAKNTLYLQMNSLKSEDTAVYYCAKVKLSGYPHPYYAMDYWGKGTLVTVSS VL: NFMLTQPPSLSGSLGQSARLTCTLGSGNSIGAHTISWYQQKAGSPPRYLLNYYSDSSNHQASGVPSRFSGSKDDSTNAGLLLISGLQPEDEADYYCAAGDGSGTVFGGGTKLTVL
7 | 0.0149 | 6.64e-05 | Fab clone 2E9 (Fab, V domains shown, Llama-derived Fab from an immune library; the constant domains of the Fab are not) VH: EVQLVESGGGLVQPGGSLRLSCAASGFTFDDYTMSWVRQVPGKGLEWISGISGNGGRTDYVEPIEGRFTISRDNAKNTLYLQMNSLKSEDTAVYYCAKTSPQSLDYWGQGTQVTVSS VL: DIVMTQSPSSVTASVGEKVTINCKSSQSVVSGSNQKSYLNWYQQRPGQPPRLLIYYASTQESGIPDRFSGSGSTTDFTLTISSVQPEDAAVYYCQQAYSAPYNFGSGTRLEIK
8 | 0.00717 | 0.000166 | Fab clone 2D6 (Fab, V domains shown, Llama-derived Fab from an immune library; the constant domains of the Fab are not) VH: QVQLQESGGGLVQPGGSLTLSCAASGFFFSSYAMSWVRQAPGKGLEWVSSISAGGGTSYYADSVKGRFTISRDSAKNTLVLQMNSLKPEDTAVYYCAKKRQNFWSEGYDSWGQGTQVTVSS VL: HSAVTQPPSVSGSPGKAVTISCVGSSSDVGYGDYVSWYQQLPGMAPKLLIYDVEKRASGIPDRFSGSKSGNTASLTISGLQSEDEADYYCASYRSDSNFVFGGGTHLAVL
9 | 0.0133 | 7.62e-05 | Fab clone 2E7 (Fab, V domains shown, Llama-derived Fab from an immune library; the constant domains of the Fab are not) VH: ELQVVESGGGLVQPGGSLRLSCAASGFTFGSYDMSWHRQAPRKGPEWVSTISAGGGRTYYADSVKGRFTISRDNAKNTLYLQMNSLKPEDTAVYFCTKIVLDSWGQGTQVTVSS VL: DVVLTQTPGSLSVVPGESASISCKASQSLIHIDGKTYLYWLLQKPGRRPELLIYQVSNHESGVPDRFTGSGSGTDFTLKISGVKAEDAGVYYCAQATYYPSFGSGTRLEIK
10 | 0.0181 | 8.53e-05 | Fab clone 2F8 (Fab, V domains shown, Llama-derived Fab from an immune library; the constant domains of the Fab are not) VH: EVQLVESGGGLVQPGGSLRLSCAASGFTFGSYDMSWVRQAPGKGPEWVSTISAGGGRTYYADSVKDRFTISRDNAKNTLYLQMNSLKPEDTAVYYCAKVVIDYWGQGTQVTVSS VL: DVVLTQTPGSLSVVPGESASISCKASQSLVHTDGKTYVYWLLQKPGQRPHLLIYQVSNHESGVPDRFTGSGSGTDFTLKISGVKAEDAGVYYCAQATYYPSFGSGTRLEIK
11 | 0.0114 | – | Fab clone 2A9 (Fab, V domains shown, Llama-derived Fab from an immune library; the constant domains of the Fab are not) VH: QVQLVESGPGLVKPSQTLSLTCTVSGGSITTSDDAWSWIRQPAGKGLEWMGVIAYDGSTRYSPSLQSRTSISRDTSKNQFSLQLSSVTPEDTAVYYCARTKGVGGTWALDAWGQGTLVTVSS VL: EIVLTQSPSSVTASVGEKVTINCKSSQSVLSSSNQKNYLSWYQQRLGQSPRLLITWASTRESGVPDRFSGSGSTTDFTLTISSFQPEDAAVYYCQQGYGAPLTFGQGTKVELKR
12 | 0.01 | 2.48e-05 | Fab clone 1A11 (Fab, V domains shown, Llama-derived Fab from an immune library; the constant domains of the Fab are not) VH: EVQLVESGGGLVQPGGSLRLSCAASGFTFSSYAMSWVRQAPGKGPEWVSHINSGGGNTKYADSVKGRFTISRDNAKNTLYLQMNTLKPEDTAVYYCAKDVSGGYYGTYALDAWGQGTQVVVSS VL: SYELTQSPSVSVALKQTAKITCGGDNIGSKSAQWYQQKPGQAPVLVIYADSRRPSGIPERFSGSNSGNTATLTISGAQAEDEADYYCQVWDSSAAVFGGGTHLTVL
13 | 0.00805 | 4.41e-05 | Fab clone 2A2 (Fab, V domains shown, Llama-derived Fab from an immune library; the constant domains of the Fab are not) VH: EVQVQESGGGLVQPGGSLRLSCAASGFTFSSYAMSWVRQAPGKGLEWVSDINSGGGSTVYTDSVKGRFTISRDNAKNTLYLQMNSLKPDDTAVYYCATGGSYYSYRLFDYWGQGTQVTVSS VL: DIQMTQSPSSVIVSAGEKVTINCKSSQSVLDSSNQKNYLAWYQQRLGQSPRLLIYWASTRESGVPDRFSGSGSTTDFTLTISSFQPEDAAVYYCQQGYSVPVTFGQGTKVELKR
14 | 0.0133 | 3.72e-05 | Fab clone 2G6 (Fab, V domains shown, Llama-derived Fab from an immune library; the constant domains of the Fab are not) VH: EVQLVESGGGLVQPGGSLRLSCAASGFTFSSYSMSWVRQAPGKGPEWVSGINTSGGTTSYAASVKGRFTVSRDNAKNTLSLQMNSLEPEDTAVYYCVKHIRWSGSNYYYYGMDYWGKGTLVTVSS VL: QAVLTQPPSVSGSPGQRFTISCTGSNRNIGNNYVNWYQQLPGTAPKLLIYSDNLRTSGVPARFSASKSGTTSSLTISGLQAEDEAVYYCSSWDDSLSGAVFGGGTHLTVL
